The source of these data is patent publication US20250333531A1 (NORDIC NANOVECTOR ASA, published 2025).

Changes are numbered by the printed parent chain.

T1: human CD37 (human, UniProt P11049 1-281)
T1 construct: whole, on cells; also called CD37 antigen
T1 sequence (looked up): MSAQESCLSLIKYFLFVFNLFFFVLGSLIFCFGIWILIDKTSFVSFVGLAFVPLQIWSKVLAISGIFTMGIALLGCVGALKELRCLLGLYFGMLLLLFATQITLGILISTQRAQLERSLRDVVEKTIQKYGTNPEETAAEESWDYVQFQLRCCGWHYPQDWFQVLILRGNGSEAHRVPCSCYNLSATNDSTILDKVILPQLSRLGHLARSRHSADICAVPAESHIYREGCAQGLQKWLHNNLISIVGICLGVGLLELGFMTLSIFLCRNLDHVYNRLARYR

B1: NNV025 (antibody, human IgG1, kappa)
heavy: not shown
light: DIQMTQSPSSLSASVGDRVTITCKASQDVSTAVDWYQQKPGKSPKLLINWASTRHTGVPSRFSGSGSGTDYTLTISSLQPEDFATYYCRQHYSTPFTFGQGTKLEIKRTVAAPSVFIFPPSDEQLKSGTASVVCLLNNFYPREAKVQWKVDNALQSGNSQESVTEQDSKDSTYSLSSTLTLSKADYEKHKVYACEVTHQGLSSPVTKSFNRGEC
notes: Humanized IgG1 kappa; also called AH02871HC + AH02877LC; AH2871HC_2877LC
B2: AH02886 (antibody, human IgG1, kappa, V domains shown)
VH: QVQLVQSGAELKKPGASVKVSCKASGYSFTDYNMYWVKQAPGQRLEWMGYIDPYNGDTTYNQKFKGRVTLTVDTSASTAYMELSSLRSEDTAVYYCARSPYGHYAMDYWGQGTLVTVSS
VL: DIQMTQSPSSLSTSVGDRVTITCKASQDVSTAVDWYQQKPGKAPKLLINWASTRHTGVPSRFSGSGSGTDYTLTISSLQPEDFATYYCRQHYSTPFTFGQGTKLEIKR
notes: Humanized IgG1 kappa; also called NNV027; NNV020 #5
B3: AH02871 (antibody, human IgG1, kappa, V domains shown)
VH: B2 VH with L11V, K12V, L70I, V72R
VL: B2 VL with T13A, L78M
notes: Humanized IgG1 kappa; also called NNV026; NNV020 #1
B4: AH02877 (antibody, human IgG1, V domains shown)
VH: B2 VH with L11V, K12V, V68A, M81I
VL: B2 VL with T13A, A43S
notes: Full-length human IgG1 kappa; constant domains from NNV003; also called NNV020 #3
B5: AH02875 (antibody, human IgG1, V domains shown)
VH: B2 VH with V2I, K38R, V68A, L70I, V72R, M81I
VL: B2 VL with T13A, A43S, L78M
notes: Full-length human IgG1 kappa; also called NNV020 #2
B6: AH02879 (antibody, human IgG1, V domains shown)
VH: B2 VH with V2I, L11V, K12V, M48I, V68A, V72R
VL: B2 VL with A43S, L78M
notes: Full-length human IgG1 kappa; constant domains from NNV003; also called NNV020 #4
B7: DuoHexaBody-CD37 (bispecific antibody, human IgG1, kappa)
heavy 1: not shown
light 1: YDMTQSPSTLSASVGDRVTITCQASQNIIDYLAWYQQKPGKAPKLLIHKASTTLASGVPSRFKGSGSGTEFTLTISSLQPDDFATYYCQQGYSNSNIDNTFGGGTKVEIKRTVAAPSVFIFPPSDEQLKSGTASVVCLLNNFYPREAKVQWKVDNALQSGNSQESVTEQDSKDSTYSLSSTLTLSKADYEKHKVYACEVTHQGLSSPVTKSFNRGEC
heavy 2: not shown
light 2: DVVMTQSPSTLSASVGDRVTITCQASQNIDSNLAWYQQKPGKAPKFLIYYASNLPFGVPSRFKGSGSGTEFTLTISSLQPDDFATYYCQSADVGSTYVAAFGGGTKVEIKRTVAAPSVFIFPPSDEQLKSGTASVVCLLNNFYPREAKVQWKVDNALQSGNSQESVTEQDSKDSTYSLSSTLTLSKADYEKHKVYACEVTHQGLSSPVTKSFNRGEC
B8: rituximab (antibody, human IgG1, kappa)
chain 1: not shown
chain 2: QIVLSQSPAILSASPGEKVTMTCRASSSVSYIHWFQQKPGSSPKPWIYATSNLASGVPVRFSGSGSGTSYSLTISRVEAEDAATYYCQQWTSNPPTFGGGTKLEIKRTVAAPSVFIFPPSDEQLKSGTASVVCLLNNFYPREAKVQWKVDNALQSGNSQESVTEQDSKDSTYSLSSTLTLSKADYEKHKVYACEVTHQGLSSPVTKSFNRGEC
B9: TCMC-NNV003 (antibody, human IgG1, kappa)
heavy: not shown
light: DIVMTQSHKLLSTSVGDRVSITCKASQDVSTAVDWYQQKPGQSPKLLINWASTRHTGVPDRFTGSGSGTDYTLTISSMQAEDLALYYCRQHYSTPFTFGSGTKLEIKRTVAAPSVFIFPPSDEQLKSGTASVVCLLNNFYPREAKVQWKVDNALQSGNSQESVTEQDSKDSTYSLSSTLTLSKADYEKHKVYACEVTHQGLSSPVTKSFNRGEC
modifications: TCMC chelator conjugate; sites not stated; TCMC chelator conjugate (GGG-TCMC); sites not stated
notes: chains are those of NNV003; also called NNV003-TCMC; NNV003-GGG-TCMC

T2 sequence (P12314 16-292): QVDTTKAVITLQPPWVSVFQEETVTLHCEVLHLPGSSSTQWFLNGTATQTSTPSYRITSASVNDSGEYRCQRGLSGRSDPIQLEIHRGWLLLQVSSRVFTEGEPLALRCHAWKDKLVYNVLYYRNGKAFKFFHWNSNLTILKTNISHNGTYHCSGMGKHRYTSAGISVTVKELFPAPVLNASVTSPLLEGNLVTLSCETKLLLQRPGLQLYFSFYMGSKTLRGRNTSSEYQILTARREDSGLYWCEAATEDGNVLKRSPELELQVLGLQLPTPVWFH

The target of the first assay is T1, human CD37. In words: competitive radioligand binding on Ramos cells; ratio to Ki of NNV009 (assumed 2.3). On the procedure: (§1) The Eppendorf LoBind tubes 1.5 mL were used to prepare dilutions (working concentrations) of Abs. As much as 0.2 mL of the cell suspension (800 000 cells/tube), after it has been cooled down for 30 min on ice, was aliquoted to glass 12×75 mm counting tubes. Each tube was pre-labeled with a code specifically determining each sample. The tubes with cells were maintained on ice for whole time course of the experiment except for the time when counted on the gamma counter. The tubes were agitated on a planetary shaker at 350 RPM, 4° C. (on ice) for 15 min. […] The tubes were placed on the planetary shaker (GL 064), on ice, and shaken for 4 hours at 350 RPM. After 3.5 hours past from the beginning of incubation, the samples were assayed on Wizard2 gamma counter using protocol “Lu-177 General” (all detectors except for the detector #3 were used). Upon completion the counting, the cells were washed with ice-cold 0.5 mL 0.5% BSAPBS three times. All the tubes were assayed on the Wizard2 gamma counter again using the same sequence and parameters as before the washing.
Consider B1, for which the “Ki(NNV009)/Ki(NNV020 var.)” value was found to be 4.31 fold.
Same read-out and setting: then B2, with 4.3 fold; and B3, with 4.27 fold.
As for B4, the “Ki(NNV009)/Ki(NNV020 var.)” value was found to be 5.45 fold.
On the same count and under the same terms, then B5, with 4.36 fold.
Regarding B6, the “Ki(NNV009)/Ki(NNV020 var.)” value is 5.22 fold.

For a further assay, the target named is FcγRIIIa-V158 on Promega Jurkat effector cells (UniProt P08637 17-254, limits assumed). In words: cell-based or functional assay.
For B7, the “average potency of the ADCC response (Example 13)” value was 0.9 nM and the “efficacy (Emax) relative to NNV024, ADCC FcγRIIIa-158V reporter assay” value is 53%.
B8: the “average potency of the ADCC response (Example 13)” value amounted to 21.3 nM and the “efficacy (Emax) relative to NNV024, ADCC FcγRIIIa-158V reporter assay” value was found to be 75%.

Another assay concerns the target T2, biotinylated truncated soluble human FcγRI (human, UniProt P12314 16-292, biotinylated).
T2 construct: extracellular domain; Bought; preformed complex with AP-streptavidin
In words: ELISA: IgG coated at 10000-4.5 ng/ml, biotinylated truncated soluble human FcγRI 250 ng/ml pre-complexed with AP-streptavidin, absorbance 405 nm. On the procedure: 96 well EIA/RIA plates (CorningCostar) were coated with 100 μl titrated amounts of IgG variants (10.000-4.5 ng/ml) diluted in PBS and incubated O/N at 4° C. Remaining surface area were blocked with PBS containing 0.05% T and 4% S for 1 h at RT. The plates were washed four times with PBS/T using a Hydrospeed™ plate washer (Tecan). […] Following washing as above, bound receptor was visualized by addition of phosphatase substrate (1 mg/ml in diethanolamine buffer) (Sigma Aldrich). The plates were developed for 15-20 min before the 405 nm absorption values were recorded using a TECAN Sunrise spectrophotometer (Tecan).
On the technique in general: ELISA stands for enzyme-linked immunosorbent assay.
As for B9, the concentration giving a half-maximal response (EC50 (read off the curve)) (commonly the concentration giving half of the maximal effect) was ~0.4 µg/mL.

For another assay, the target named is T3, biotinylated soluble human FcRn (human, UniProt P55899 24-297; P61769 21-119, biotinylated).
T3 construct: extracellular domain; Bought; Beta-2-microglobulin is not mentioned; Used as preformed complex with AP-streptavidin
T3 sequence (P55899 24-297 limits assumed, chain 1 of 2): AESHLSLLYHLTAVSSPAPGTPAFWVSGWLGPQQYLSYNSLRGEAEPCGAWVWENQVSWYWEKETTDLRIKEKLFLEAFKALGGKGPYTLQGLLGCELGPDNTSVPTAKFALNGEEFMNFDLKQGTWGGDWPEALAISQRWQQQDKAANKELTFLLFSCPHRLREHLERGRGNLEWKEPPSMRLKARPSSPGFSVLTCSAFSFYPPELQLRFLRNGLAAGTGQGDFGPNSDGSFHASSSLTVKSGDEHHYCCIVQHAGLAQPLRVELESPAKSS
T3 sequence (P61769 21-119 limits assumed, chain 2 of 2): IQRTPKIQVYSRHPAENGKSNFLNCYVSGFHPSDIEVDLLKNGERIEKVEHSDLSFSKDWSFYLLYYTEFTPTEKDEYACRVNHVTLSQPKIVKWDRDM
In words: ELISA: IgG coated at 1000-0.45 ng/ml, biotinylated soluble human FcRn 250 ng/ml pre-complexed with AP-streptavidin, pH 6.0, absorbance 405 nm. On the procedure:
Remaining surface area were blocked with PBS containing 0.05% T and 4% S for 1 h at RT. The plates were washed four times with PBS/T using a Hydrospeed™ plate washer (Tecan). […] Following washing as above with PBS/T or FcRn binding buffer ([…], 0.1 M NaCl, 0.05% T, pH 6.0), bound receptor was visualized by addition of phosphatase substrate (1 mg/ml in diethanolamine buffer) (Sigma Aldrich). The plates were developed for 20-30 min before the 405 nm absorption values were recorded using a TECAN Sunrise spectrophotometer (Tecan).
As to B9, the “EC50 (read off the curve)” value is ~0.06 µg/mL.

A further assay concerns the target T1, human CD37. In words: competitive radioligand binding on Ramos cells against 177Lu-NNV009 (2.7 nM), gamma counting. As for the experimental part: as §1
As for B1, the concentration for a half-maximal effect (EC50) (usually the concentration giving half of the maximal effect) worked out at 1.16 nM and the affinity corresponds to a Ki of 0.533 nM.
The corresponding values for B2 are 1.16 nM and 0.535 nM.
For B3, the EC50 was determined as 1.17 nM and affinity was put at a Ki of 0.539 nM.
The corresponding values for B4 are 0.917 nM and 0.422 nM.
Turning to B5, the EC50 was determined as 1.15 nM; the Ki (as a rule, the dissociation constant of the complex between target and ligand, obtained from inhibition or displacement) is 0.528 nM.
For B6, the EC50 came to 0.959 nM and the Ki was determined as 0.441 nM.
